Literature values in patent publication US20160114005A1, “HYBRID PROTEIN THAT CONVERTS ARACHIDONIC ACID INTO PROSTACYCLIN” (UNIVERSITY OF HOUSTON SYSTEM, priority 2006, published 2016).
“And” between values parts separate entries of the source, which are not always exact repeats. Equal entries are not always repeated. Where two headings read alike, the source gives them in different places.

B1: PGIS: Individual prostacyclin synthase enzyme (protein, UniProt Q16647 1-500, looked up)
Prostacyclin synthase: MAWAALLGLLAALLLLLLLSRRRTRRPGEPPLDLGSIPWLGYALDFGKDAASFLTRMKEKHGDIFTILVGGRYVTVLLDPHSYDAVVWEPRTRLDFHAYAIFLMERIFDVQLPHYSPSDEKARMKLTLLHRELQALTEAMYTNLHAVLLGDATEAGSGWHEMGLLDFSYSFLLRAGYLTLYGIEALPRTHESQAQDRVHSADVFHTFRQLDRLLPKLARGSLSVGDKDHMCSVKSRLWKLLSPARLARRAHRSKWLESYLLHLEEMGVSEEMQARALVLQLWATQGNMGPAAFWLLLFLLKNPEALAAVRGELESILWQAEQPVSQTTTLPQKVLDSTPVLDSVLSESLRLTAAPFITREVVVDLAMPMADGREFNLRRGDRLLLFPFLSPQRDPEIYTDPEVFKYNRFLNPDGSEKKDFYKDGKRLKNYNMPWGAGHNHCLGRSYAVNSIKQFVFLVLVHLDLELINADVEIPEFDLSRYGFGLMQPEHDVPVRYRIRP

Molecule | Km (individual COX2, previously characterized by several groups) | Km (individual PGIS, previously characterized by several groups)
COX2: Individual cyclooxygenase isoform-2 enzyme [reference compound] | 6.5 µM and 0.9 µM | –
B1 | – | 13.3 µM and 30 µM and 9.5 µM
